Measured values: patent publication CN114957460A (dated 2022)

Experiments:
Assay in all cases: cell-based or functional assay
双组分毒素HlgAB = 双组分毒素HlgAB (金黄色葡萄球菌 (Staphylococcus aureus), UniProt P0A074 30-309; P0A077 26-325)
双组分毒素HlgA+LukD = 双组分毒素HlgA+LukD (金黄色葡萄球菌 (Staphylococcus aureus), UniProt P0A074 30-309; O54082 27-327)
双组分毒素HlgA+LukF = 双组分毒素HlgA+LukF (金黄色葡萄球菌 (Staphylococcus aureus), UniProt P0A074 30-309; P31715 26-323)

Measured: 兔红细胞溶血中和 (上清OD405)

B1: 鼠源抗原结合蛋白17C7 (antibody, V domains shown)
VH: EVQLQQSGAELVRSGASVKLSCTASGFNIKDYYMHWVKQRPEQGLEWIGWIDPENDIGEYAPKFQGKATMTADTSSNTAYLQLSSLTSEDTAVYFCNALWGGVLDYWGQGTSVTVSA
VL: DVVMTQTPLSLPVSLGDQASISCRSSQSLVNSNGNTYLHWYLQKPGQSPNLLIYRVSNRFSGVPDRFSGSGSGTDFTLKISRVEAEDLGVYFCSQSTHVPYTFGGGTKLEIKR
4 µg: all assays above
